Molecular target: reduced RNase (reduced pancreatic RNase)

B1: bovine QSOX1 (quiescin Q6 sulfhydryl oxidase 1) isolated from milk (protein)
chain: SALYSSSDPLTLLRADTVRSTVLGSSSAWAVEFFASWCGHCIAFAPTWKALANDVKDWRPALNLAALDCAEETNSAVCRDFNIPGFPTVRFFKAFSKTGSGTTLSVAGADVQTLRERLIDALESHSDTWPPACPPLEPARLEEITGFFARNNEEYLALIFEKEGSYLGREVTLDLSQHQGIAVRRVLNTERDVVNRFGVTNFPSCYLLSRNGSFSRVPALTESRSFYTTYLRKFSGSTRGAVQTTAAPATTSAVAPTVWKVADRSKIYMADLESALHYILRIEVGKFSVLEGQRLVALKKFMAVLAKYFRGRPLVQNFLHSMNDWLKKQQRKKIPYGFFKNALDSRKEGTVIAEKVNWVGCQGSEPHFRGFPCSLWILFHFLTVQAAQEGVDHPQERAKAQEVLQAIRGYVRFFFGCRECAGHFEQMASGSMHRVGSLNSAVLWFWSSHNKVNARLAGAPSEDPQFPKVQWPPRELCSACHNELRGTPVWDLDNILKFLKTHFSPSNIVLDFPSAGPGPWR
- KM: 60 µM
- kcat (min^-1), thiols oxidized per minute: 1340 min⁻¹
- kcat/KM: 374000 M⁻¹ s⁻¹

From patent publication US20090042269
